According to patent US20150218239A1 (ARGENX, published 2015):
Where a chain is given by its changes, count along the chain named. Names and notes keep the numbering of the source.

B1: Fc-Abdeg-POT (other)
chain: DKTHTCPPCPAPELLGGPSVFLFPPKPKDTLYITREPEVTCVVVDVSHEDPEVKFNWYVDGVEVHNAKTKPREEQYNSTYRVVSVLTVLHQDWLNGKEYKCKVSNKALPAPIEKTISKAKGQPREPQVYTLPPSRDELTKNQVSLTCLVKGFYPSDIAVEWESNGQPENNYKTTPPVLDSDGSFFLYSKLTVDKSRWQQGNVFSCSVMHEALKFHYTQKSLSLSPGK
modifications: afucosylated N-linked glycan (afucosylated form of Fc-Abdeg)
notes: also called afucosylated form of Fc-Abdeg; afucosylated variant
B2: Fc-Abdeg-S239D/I332E (other)
chain: B1 chain with S19D, I112E
notes: Fc-Abdeg variant

How the values were obtained:
[1] = target: T1, murine CD16-2 (Sino Biological Inc., 50036-M27H-B) (murine, UniProt A0A0B4J1G0 21-203, Probably biotinylated on a vendor tag (suffix -B); not given); experiment: ELISA on murine CD16-2, similar procedure to the hCD16a ELISA
T1 construct: Bought reagent, used in 'a similar experimental procedure' to the hCD16a ELISA; also called mCD16-2
T1 sequence: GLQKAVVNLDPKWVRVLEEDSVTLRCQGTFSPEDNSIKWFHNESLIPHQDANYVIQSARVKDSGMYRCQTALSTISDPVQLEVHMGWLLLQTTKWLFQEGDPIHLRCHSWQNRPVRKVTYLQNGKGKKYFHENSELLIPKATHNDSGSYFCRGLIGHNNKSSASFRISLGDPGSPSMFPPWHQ
Experimental: (§1) Specifically, a Maxisorp plate was coated with 100 ng/well of Neutravidin Biotin-binding Protein (ThermoScientific, 31000) and incubated overnight at 4° C. The following day, the plate was blocked with PBS+1% casein for 2 hours at room temperature. […] Binding to hCD16a was detected using an HRP-conjugated polyclonal goat anti-human Fc antibody (Jackson ImmunoResearch, 109-035-008) (incubation 1 hour at RT, dilution 1/50,000 in PBS+0.1% casein), followed by addition of […] room temperature-equilibrated TMB (SDT-reagents #s TMB). Plates were incubated for 10 minutes prior to addition of 100 μl 0.5N H₂SO₄ and OD450 nm measurement. EC50 values were determined using GraphPad Prism software.
Using a similar experimental procedure as described above, the binding affinity for murine CD16-2 (Sino Biological Inc., 50036-M27H-B) was determined.

[2] = target: T2, biotinylated hCD16a (Sino Biological Inc., 10389-H27H1-B) (human, UniProt P08637 17-208, biotinylated); experiment: ELISA on biotinylated hCD16a captured on neutravidin; anti-human Fc-HRP detection
T2 construct: Bought reagent, captured on a neutravidin-coated plate; also called human CD16a
T2 sequence (P08637 17-208 limits assumed): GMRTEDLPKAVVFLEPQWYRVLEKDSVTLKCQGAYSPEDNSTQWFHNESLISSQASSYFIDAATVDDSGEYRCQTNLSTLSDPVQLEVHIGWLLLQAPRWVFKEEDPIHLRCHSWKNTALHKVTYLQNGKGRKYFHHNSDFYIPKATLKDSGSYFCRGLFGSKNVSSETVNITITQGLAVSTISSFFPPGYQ
Experimental: as §1

Binder	EC50 [1] [nM]	EC50 [2] [nM]	fold increase in affinity over fucosylated Fc-Abdeg [2] [fold]
B1	11	13	> 30
B2		6	
